The labels stand for the following.
B2: M200 fragment of nonmuscle myosin IIA heavy chain (Q1761-E1960) (domain or fragment, UniProt P35579 1761-1960, looked up)
chain: QINTDLNLERSHAQKNENARQQLERQNKELKVKLQEMEGTVKSKYKASITALEAKIAQLEEQLDNETKERQAACKQVRRTEKKLKDVLLQVDDERRNAEQYKDQADKASTRLKQLKRQLEEAEEEAQRANASRRKLQRELEDATETADAMNREVSSLKNKLRRGDLPFVVPRRMARKGAGDGSDEEVDGKADGAEAKPAE
notes: nonmuscle myosin IIA heavy chain, residues Q1761-E1960; forms a coiled coil and filaments; source: expressed and purified as described previously (Badyal et al., 2011)
B6: S100A4 (natural protein)
chain: not shown
notes: S100A4; the NMR analysis speaks of residues 1-101; The His-tag is named only for the SPR experiment (two His-tags in the dimer); also called WT S100A4; u-S100A4; source: expressed and purified as described previously (Badyal et al., 2011)

Data set [1] deals with the molecule itself. The data set can be described thus: SEC-MALLS; Superdex 75 10/300, 20 mM MES pH 6.1, 150 mM NaCl, 0.5 mM DTT, 0.7 ml/min; 75 µM M70, 150 µM M111, 50 µM S100A4, 50 µM S100A4 V77D, 50 µM S100A4 C81D loaded.
Data set [2] concerns the molecule itself. The data set is described as follows: competitive turbidity assay; 12.5 µM M200 diluted into 100 mM NaCl, 20 mM Hepes, 1 mM Mg2+, 100 µM Ca2+; turbidity at 300 nm; 25 µM S100A4 (monomer) added at 800 s, 10 µM M39 added at 1450 s.
The target in data set [3] is B6. The data set is described as follows: stopped-flow Quin-2 fluorescence (Ca2+ dissociation); M39 premixed with 13 µM S100A4 (monomer concentration) and 50 µM Ca2+, mixed with 100 µM Quin-2; 20 mM NaCl, 10 mM Hepes, 1 mM MgCl2, pH 7.5, 20 °C; amplitude of the fast phase against [M39]; mutants with up to 50 µM M39. The settings on record: both partners purified.
For data set [4], the target named is B6. The data set can be described thus: kinetic scheme (estimates or values required for thermodynamic balance); S100A4 dimer with a single Ca2+ bound; values in blue in the scheme, not experimental measurements. To be noted: both partners purified.
Data set [5] has as its target B6. The data set can be described thus: SPR; Biacore X100, S100A4 (0.5 µM) coupled by its His-tags to a Ni-NTA chip; M39 at 1, 3, 9 and 27 nM; 20 mM MES pH 6.1, 150 mM NaCl, 5 mM CaCl2, 0.5 mM TCEP, 50 µM EDTA, 0.005% Surfactant P20; fit to 1:1 Langmuir model. The settings on record: both partners purified.
Data set [6] concerns the target B6. The data set is described as follows: competitive turbidity assay; 12.5 µM M200 diluted into 100 mM NaCl, 20 mM Hepes, 1 mM Mg2+, 100 µM Ca2+; turbidity at 300 nm; 25 µM S100A4 (monomer) added at 800 s, 10 µM M39 added at 1450 s. To be noted: both partners purified.
Data set [7] has as its target B6. The data set is described as follows: kinetic scheme (estimates or values required for thermodynamic balance); apo S100A4 dimer (no Ca2+ bound); values in blue in the scheme, not experimental measurements. The settings on record: both partners purified.
Data set [8] deals with T1, S100A4, wild type, Ca^2+-bound dimer (recombinant) (UniProt P26447 1-101).
T1 construct: also called WT; u-S100A4; source: recombinant, unlabeled and 13C,15N-labeled; purified
The data set is described as follows: kinetic assays; kinetic assays similar to those of Badyal et al., 2011 (Figures S1I–S1L). To be noted: both partners purified.

Data set [9] has as its target T2, S100A4 V77D mutant (studied in vitro) (UniProt P26447 1-101, V77D).
T2 construct: Parent: m1
The data set can be described thus: NMR titration; S100A4 V77D and C81D mutants (Figures S3C and S3D); the myosin fragment is not given. To be noted: both partners purified.

Data set [10] concerns the target T3, S100A4 C81D mutant (studied in vitro) (UniProt P26447 1-101, C81D).
T3 construct: Parent: m1
The description is as above. To be noted: both partners purified.

In data set [11] the target is T1, S100A4, wild type, Ca^2+-bound dimer …. The data set can be described thus: SPR; sensorgrams at nanomolar concentrations of M39; simultaneous fit to a single site-binding model; n = 3. The settings on record: both partners purified. (In general: Surface plasmon resonance follows binding to a sensor surface in real time, without labels.)
For data set [12] the target is unchanged. The data set can be described thus: ITC + SPR + other: kinetic assays; limit that the paper gives as compatible with all its methods. The settings on record: both partners purified.
The target is the same in data set [13]. The data set is described as follows: ITC; 10 μM S100A4 in the cell, 75 μM M39 in the syringe; single site-binding model; the paper calls the KD an upper limit. To be noted: both partners purified. (Isothermal titration calorimetry measures the heat released or taken up as one component is titrated into another.)
The target in data set [14] is B2. The data set can be described thus: competitive turbidity assay; 12.5 µM M200 diluted into 100 mM NaCl, 20 mM Hepes, 1 mM Mg2+, 100 µM Ca2+; turbidity at 300 nm; 25 µM S100A4 (monomer) added at 800 s, 10 µM M39 added at 1450 s. The settings on record: both partners purified.
Data set [15] concerns the molecule itself. The data set is described as follows: SEC-MALLS; Superdex 75 10/300, 20 mM MES pH 6.1, 150 mM NaCl, 0.5 mM DTT, 0.7 ml/min; 75 µM M70, 150 µM M111, 50 µM S100A4, 50 µM S100A4 V77D, 50 µM S100A4 C81D loaded. The source holds these as a separate data set.
Data set [16] deals with T1, S100A4, wild type, Ca^2+-bound dimer …. The data set is described as follows: SEC-MALS; SEC-MALLS with refractive index and absorbance detection; S100A4 and myosin fragment mixed (1:1 molar ratio for M111). The settings on record: both partners purified. (In general: In gel filtration, larger molecules generally elute earlier.)

Several values for one entry are separate records, joined by “and”; a condition that tells them apart may be missing. Equal entries are not always repeated. Where two headings read alike, the source gives them in different places.

These results are taken from article PMC3343272, “Asymmetric Mode of Ca^2+-S100A4 Interaction with Nonmuscle Myosin IIA Generates Nanomolar Affinity Required for Filament Remodeling” (Structure(London, England:1993), 2012).

B1: S100A4 V77D (natural protein)
chain: MACPLEKALDVMVSTFHKYSGKEGDKFKLNKSELKELLTRELPSFLGKRTDEAAFQKLMSNLDSNRDNEVDFQEYCDFLSCIAMMCNEFFEGFPDKQPRKK
notes: source: expressed and purified as described previously (Badyal et al., 2011)
Broadly, the stoichiometry N is the number of molecules, sites or subunits per partner or assembly. Consider B1, for which the “stoichiometry N” value in data set [1] is 2.

In the case of B2, the binding result in data set [2] is “binds”.

B3: M39 peptide of nonmuscle myosin IIA heavy chain (residues Q1897-A1935) (peptide)
peptide: QRELEDATETADAMNREVSSLKNKLRRGDLPFVVPRRMA
notes: nonmuscle myosin IIA heavy chain (NM-MHC IIA), residues Q1897-A1935; also called u-M39; WT M39; source: synthetic peptide; bought: GL Biochem Ltd (Shanghai, China), purity >95% by HPLC
As a reminder, the Kd is the constant that tells how readily two partners part at equilibrium. In the case of B3, the Kd in [3] is less than 0.5 µM; in data set [4], 1 µM; in [5], 0.0004 µM; in [6], less than 0.01 µM; in [7], 10000 µM. The “stoichiometry N” value in data set [3] turned out to be 2.6 S100A4 monomers per M39.

B4: M39, nonmuscle myosin IIA heavy chain peptide (residues Q1897–A1935) (peptide, UniProt P35579 1897-1935, looked up)
peptide: QRELEDATETADAMNREVSSLKNKLRRGDLPFVVPRRMA
notes: nonmuscle myosin IIA (NMIIA) heavy chain, residues Q1897-A1935; Unmodified (no fluorescent label); also called u-M39; source: synthetic peptide
B4: the Kd in data set [8] is roughly 0.0001 µM; in data set [9], roughly 100 µM; in [10], roughly 100 µM; in data set [11] it was 0.00024 ± 7e-05 µM; in data set [12], no more than 0.001 µM; in data set [13], 0.0059 µM and 0.004 µM. In data set [13], the “stoichiometry N” value turned out to be 0.55 ± 0.06 M39/S100A4.

B5: S100A4 C81D (natural protein)
chain: not shown
notes: as for B1
On to B5, for which, in data set [1], the “stoichiometry N” value was 2.

Regarding B6, the binding result in data set [14] is “binds”.

B7: M70 fragment of nonmuscle myosin IIA heavy chain (residues A1868-G1938) (domain or fragment, UniProt P35579 1868-1938, looked up)
chain: ASTRLKQLKRQLEEAEEEAQRANASRRKLQRELEDATETADAMNREVSSLKNKLRRGDLPFVVPRRMARKG
notes: nonmuscle myosin IIA heavy chain, residues A1868-G1938; small print, not read surely; also called u-M70; 15N-M70; source: recombinant; expressed and purified as described previously (Badyal et al., 2011)
For B7, the “stoichiometry N” value in data set [15] was found to be 2.

B8: M70, nonmuscle myosin IIA heavy chain fragment (residues A1868–G1938) (domain or fragment, UniProt P35579 1868-1938, looked up)
chain: ASTRLKQLKRQLEEAEEEAQRANASRRKLQRELEDATETADAMNREVSSLKNKLRRGDLPFVVPRRMARKG
notes: nonmuscle myosin IIA (NMIIA) heavy chain, residues A1868-G1938; also called u-M70; 13C,15N-M70; source: recombinant, unlabeled, 15N-labeled and 13C,15N-labeled
Take B8: in data set [16], the “stoichiometry N” value was 0.5 myosin fragment per S100A4 subunit.

B9: M111 fragment of nonmuscle myosin IIA heavy chain (residues Q1850-E1960) (domain or fragment, UniProt P35579 1850-1960, looked up)
chain: QVDDERRNAEQYKDQADKASTRLKQLKRQLEEAEEEAQRANASRRKLQRELEDATETADAMNREVSSLKNKLRRGDLPFVVPRRMARKGAGDGSDEEVDGKADGAEAKPAE
notes: nonmuscle myosin IIA heavy chain, residues Q1850-E1960; source: expressed and purified as described previously (Badyal et al., 2011)
As to B9, the “stoichiometry N” value in data set [15] amounted to 2.

B10: M111, nonmuscle myosin IIA heavy chain fragment (residues Q1850–E1960) (domain or fragment, UniProt P35579 1850-1960, looked up)
chain: QVDDERRNAEQYKDQADKASTRLKQLKRQLEEAEEEAQRANASRRKLQRELEDATETADAMNREVSSLKNKLRRGDLPFVVPRRMARKGAGDGSDEEVDGKADGAEAKPAE
notes: nonmuscle myosin IIA (NMIIA) heavy chain, residues Q1850-E1960
Consider B10, for which the “stoichiometry N” value in data set [16] is 0.5 myosin fragment per S100A4 subunit.
